Source: patent US20240131153A1 (ABCENTRA, published 2024)

Biological target: oxidized LDL (oxLDL) (UniProt P04114 28-4563, limits assumed, oxidized LDL; kind of oxidation of the preparation used in the assay not stated)
Test: cell-based or functional assay

Sequence of oxidized LDL (oxLDL) (P04114 28-4563 limits assumed): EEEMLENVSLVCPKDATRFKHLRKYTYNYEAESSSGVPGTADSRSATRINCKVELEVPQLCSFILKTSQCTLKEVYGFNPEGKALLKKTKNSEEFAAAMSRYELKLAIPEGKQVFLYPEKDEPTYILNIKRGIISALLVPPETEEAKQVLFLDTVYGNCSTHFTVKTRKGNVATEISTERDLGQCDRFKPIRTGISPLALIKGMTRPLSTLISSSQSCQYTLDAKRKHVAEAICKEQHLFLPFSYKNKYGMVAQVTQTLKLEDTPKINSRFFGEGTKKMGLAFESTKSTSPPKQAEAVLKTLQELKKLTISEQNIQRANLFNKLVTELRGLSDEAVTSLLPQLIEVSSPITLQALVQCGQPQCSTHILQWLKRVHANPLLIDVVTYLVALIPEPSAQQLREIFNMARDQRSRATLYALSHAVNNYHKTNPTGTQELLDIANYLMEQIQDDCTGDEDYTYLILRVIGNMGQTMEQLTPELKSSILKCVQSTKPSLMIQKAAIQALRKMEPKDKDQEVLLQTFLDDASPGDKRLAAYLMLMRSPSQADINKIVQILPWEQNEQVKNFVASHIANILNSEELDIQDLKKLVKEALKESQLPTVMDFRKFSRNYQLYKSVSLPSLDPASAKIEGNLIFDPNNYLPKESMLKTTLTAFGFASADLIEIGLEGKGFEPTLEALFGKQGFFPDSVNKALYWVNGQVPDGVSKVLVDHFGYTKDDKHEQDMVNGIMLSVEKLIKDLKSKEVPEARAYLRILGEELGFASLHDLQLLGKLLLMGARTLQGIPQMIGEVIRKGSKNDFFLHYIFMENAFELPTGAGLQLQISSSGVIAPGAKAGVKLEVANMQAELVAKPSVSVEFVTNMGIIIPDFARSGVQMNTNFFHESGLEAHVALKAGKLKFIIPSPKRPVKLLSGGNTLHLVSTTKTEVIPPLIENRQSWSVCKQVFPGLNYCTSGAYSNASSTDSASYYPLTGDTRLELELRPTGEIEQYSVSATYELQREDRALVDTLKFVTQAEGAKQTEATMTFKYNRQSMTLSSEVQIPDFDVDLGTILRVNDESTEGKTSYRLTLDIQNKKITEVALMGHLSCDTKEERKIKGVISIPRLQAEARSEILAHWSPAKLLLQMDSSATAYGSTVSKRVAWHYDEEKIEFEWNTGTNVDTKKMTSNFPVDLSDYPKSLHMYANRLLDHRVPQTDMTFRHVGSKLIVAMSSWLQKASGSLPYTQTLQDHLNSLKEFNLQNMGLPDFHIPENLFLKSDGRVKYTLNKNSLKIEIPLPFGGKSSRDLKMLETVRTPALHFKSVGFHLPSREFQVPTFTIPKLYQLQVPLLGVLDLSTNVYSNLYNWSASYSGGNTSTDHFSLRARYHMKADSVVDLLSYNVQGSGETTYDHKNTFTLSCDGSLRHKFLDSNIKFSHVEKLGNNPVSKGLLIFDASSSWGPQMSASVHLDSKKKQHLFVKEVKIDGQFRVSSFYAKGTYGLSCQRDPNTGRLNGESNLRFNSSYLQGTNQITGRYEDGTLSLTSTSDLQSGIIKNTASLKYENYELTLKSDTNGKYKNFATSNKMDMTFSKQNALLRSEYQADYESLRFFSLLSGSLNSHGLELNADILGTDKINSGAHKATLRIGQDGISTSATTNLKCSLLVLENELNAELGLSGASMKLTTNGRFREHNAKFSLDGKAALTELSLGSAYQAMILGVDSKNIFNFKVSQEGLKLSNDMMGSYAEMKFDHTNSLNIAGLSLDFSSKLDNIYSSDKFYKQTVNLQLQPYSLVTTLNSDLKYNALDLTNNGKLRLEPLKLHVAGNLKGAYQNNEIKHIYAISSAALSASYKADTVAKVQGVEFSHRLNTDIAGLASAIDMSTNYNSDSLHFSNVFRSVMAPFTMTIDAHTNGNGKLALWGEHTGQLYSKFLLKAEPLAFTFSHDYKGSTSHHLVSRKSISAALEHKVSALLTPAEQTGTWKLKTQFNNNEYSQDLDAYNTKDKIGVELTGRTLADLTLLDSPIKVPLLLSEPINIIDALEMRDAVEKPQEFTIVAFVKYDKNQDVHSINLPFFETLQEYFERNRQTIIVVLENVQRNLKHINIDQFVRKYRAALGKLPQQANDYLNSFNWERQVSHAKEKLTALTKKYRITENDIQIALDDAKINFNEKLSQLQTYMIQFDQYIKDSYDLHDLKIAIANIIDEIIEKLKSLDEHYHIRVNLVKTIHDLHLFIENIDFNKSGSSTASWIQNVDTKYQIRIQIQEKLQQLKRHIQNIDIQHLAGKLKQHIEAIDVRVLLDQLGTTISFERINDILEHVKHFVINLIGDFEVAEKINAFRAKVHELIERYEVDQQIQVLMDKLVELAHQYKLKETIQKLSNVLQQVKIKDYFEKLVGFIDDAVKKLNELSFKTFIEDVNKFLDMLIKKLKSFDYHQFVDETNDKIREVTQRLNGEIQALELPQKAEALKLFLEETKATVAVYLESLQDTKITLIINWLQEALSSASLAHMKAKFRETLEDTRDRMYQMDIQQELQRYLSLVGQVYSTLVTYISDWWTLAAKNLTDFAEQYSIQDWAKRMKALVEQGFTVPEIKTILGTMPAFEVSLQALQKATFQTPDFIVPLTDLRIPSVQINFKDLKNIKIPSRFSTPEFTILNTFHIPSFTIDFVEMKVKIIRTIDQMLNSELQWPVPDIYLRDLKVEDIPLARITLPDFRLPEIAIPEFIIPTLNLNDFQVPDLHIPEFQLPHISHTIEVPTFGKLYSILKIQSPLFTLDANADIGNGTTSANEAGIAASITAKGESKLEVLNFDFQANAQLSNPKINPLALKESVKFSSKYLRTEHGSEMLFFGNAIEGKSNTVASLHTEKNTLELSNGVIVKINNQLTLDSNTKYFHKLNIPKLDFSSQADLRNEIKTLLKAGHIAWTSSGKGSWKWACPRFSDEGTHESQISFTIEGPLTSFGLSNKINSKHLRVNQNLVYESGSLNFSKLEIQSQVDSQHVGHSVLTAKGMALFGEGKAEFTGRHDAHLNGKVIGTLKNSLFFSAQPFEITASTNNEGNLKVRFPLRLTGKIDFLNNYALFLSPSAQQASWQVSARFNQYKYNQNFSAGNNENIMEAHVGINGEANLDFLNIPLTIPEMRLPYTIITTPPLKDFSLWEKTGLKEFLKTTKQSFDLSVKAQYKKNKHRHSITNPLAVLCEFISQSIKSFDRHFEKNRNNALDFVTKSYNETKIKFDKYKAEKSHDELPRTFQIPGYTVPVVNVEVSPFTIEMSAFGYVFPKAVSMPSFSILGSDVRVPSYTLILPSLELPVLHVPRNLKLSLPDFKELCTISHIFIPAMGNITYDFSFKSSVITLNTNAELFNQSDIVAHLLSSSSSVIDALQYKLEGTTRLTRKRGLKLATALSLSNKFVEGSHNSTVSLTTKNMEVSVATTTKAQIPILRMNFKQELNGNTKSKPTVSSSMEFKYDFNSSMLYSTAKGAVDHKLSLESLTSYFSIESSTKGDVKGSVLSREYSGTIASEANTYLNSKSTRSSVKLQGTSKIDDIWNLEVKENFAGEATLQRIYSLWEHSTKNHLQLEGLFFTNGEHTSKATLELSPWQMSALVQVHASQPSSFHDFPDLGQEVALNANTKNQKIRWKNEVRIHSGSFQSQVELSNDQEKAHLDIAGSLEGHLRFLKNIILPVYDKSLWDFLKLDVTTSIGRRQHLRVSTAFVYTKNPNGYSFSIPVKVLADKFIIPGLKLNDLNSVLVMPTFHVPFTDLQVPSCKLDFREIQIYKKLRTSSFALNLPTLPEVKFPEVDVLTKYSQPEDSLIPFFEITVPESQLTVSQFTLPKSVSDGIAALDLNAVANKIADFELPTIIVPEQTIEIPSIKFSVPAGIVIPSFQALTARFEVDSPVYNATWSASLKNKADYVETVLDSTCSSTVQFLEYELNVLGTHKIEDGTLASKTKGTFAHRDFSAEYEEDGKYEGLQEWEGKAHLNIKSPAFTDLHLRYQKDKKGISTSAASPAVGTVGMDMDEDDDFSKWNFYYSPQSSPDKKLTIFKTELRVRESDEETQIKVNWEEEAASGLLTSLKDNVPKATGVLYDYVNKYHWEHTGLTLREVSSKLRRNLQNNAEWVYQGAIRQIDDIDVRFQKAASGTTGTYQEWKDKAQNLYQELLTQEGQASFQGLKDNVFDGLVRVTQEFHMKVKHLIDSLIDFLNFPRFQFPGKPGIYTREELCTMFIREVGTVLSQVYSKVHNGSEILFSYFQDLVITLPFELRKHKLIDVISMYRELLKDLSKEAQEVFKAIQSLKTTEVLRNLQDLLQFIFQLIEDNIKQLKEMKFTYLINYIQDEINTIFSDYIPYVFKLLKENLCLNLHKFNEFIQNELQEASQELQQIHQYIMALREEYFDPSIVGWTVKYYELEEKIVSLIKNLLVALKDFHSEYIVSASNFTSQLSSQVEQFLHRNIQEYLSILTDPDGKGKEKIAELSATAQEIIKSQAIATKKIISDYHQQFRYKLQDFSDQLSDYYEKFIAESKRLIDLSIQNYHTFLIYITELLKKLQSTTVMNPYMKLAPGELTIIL

B1: orticumab (antibody, human IgG1, lambda, V domains shown)
VH: EVQLLESGGGLVQPGGSLRLSCAASGFTFSNAWMSWVRQAPGKGLEWVSSISVGGHRTYYADSVKGRSTISRDNSKNTLYLQMNSLRAEDTAVYYCARIRVGPSGGAFDYWGQGTLVTVSS
VL: QSVLTQPPSASGTPGQRVTISCSGSNTNIGKNYVSWYQQLPGTAPKLLIYANSNRPSGVPDRFSGSKSGTSASLAISGLRSEDEADYYCASWDASLNGWVFGGGTKLTVLG
For B1, the “IC50 for MCP-1 inhibition” value was roughly 10 nM.
